Substitutions are numbered along the chain they refer to.
T1: hC5a with 6xHis tag (human, UniProt P01031 678-751)
T1 construct: also called WT hC5a; WT-hC5a
T1 sequence: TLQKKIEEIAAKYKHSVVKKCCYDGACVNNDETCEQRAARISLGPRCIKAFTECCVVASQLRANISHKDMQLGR

T2: Val18pBpa mutant of hC5a (human, UniProt P01031 678-751, not fully specified; p-benzoyl-L-phenylalanine (pBpa) at 18)
T2 construct: X stands for pBpa
T2 chain: T1 sequence with V18X

B1: 64UV63 phage (scFv)
scFv: ELTLTQSPAFMSATPGDKVNISCKGSQDIDDNMNWYQQKPGEAIIFIIQEATTLVPGIPPRFSGSGYGTDFTLTINNIESEDAAYYFCLQHDNFPPYTFGQGTKLEIKGGSSRSSSSGGGGSGGGGQVQLQESGGGLVQPGGSLRLSCAASGFTFSSYEMNWVRQAPGKGLEWVSYISSSGSTIYYADSVKGRFTISRDNAKNSLYLQMNSLRAEDTAVYYCARDLGGFDPWGQGTLVTASS
notes: also called 64UV63 scFv
B2: hC5a-35 phage (scFv)
scFv: DIQMTQSPSSLSASVGDRVTITCQASQDISNYLNWYQQKPGKAPKLLIYDASNLETGVPSRFSGSGSGTDFTFTIRSLQPEDIATYYCQQYDNLPPWTFGQGTKVEIKGGSSRSSSSGGGGSGGGGEVQLVESGGGLVEPGRSLRLSCTASGYTFGDYAMSWFRQAPGKDLEWVGFIRSKAYGGTTEYAASVKGRFTISRDDSKSIAYLQMNSLKTEDTAVYYCTRAGNDDQYFDYWGQGTQVTVSS
notes: also called hC5a-35scfv; hC5a-35 scfv

Columns and labels:
[1] = molecular target: IL1β 64pBpa mutant (human) (UniProt P01584); assay: monoclonal phage panning on coated antigen; ratio of output CFU with and without UV crosslinking
[2] = molecular target: IL1β 64pBpa mutant (human) (UniProt P01584); assay: monoclonal phage panning on coated antigen, no UV, competitive/low-pH washes, trypsin release, colony count
IL1β WT with 6xHis tag = molecular target: T3, IL1β WT with 6xHis tag (human, UniProt P01584 117-269); assay: monoclonal phage panning on coated antigen; ratio of output CFU with and without UV crosslinking
T3 construct: Expressed in E. coli from pET28a with a C-terminal 6xHis tag; about 19 kDa on SDS-PAGE; also called WT IL1β; wild-type IL1β
Excerpt: Colony Forming Unit (CFU) was counted, and finally the positive clones(hits) were picked.
After elution, the output CFUs of UV and non-UV-treated groups were counted and compared.

[3] = molecular target: IL1β 64pBpa mutant (human) (UniProt P01584); assay: monoclonal phage panning on coated antigen, UV 365 nm, competitive/low-pH washes, trypsin release, colony count
hC5a with 6xHis tag = molecular target: T1, hC5a with 6xHis tag; assay: monoclonal phage panning on coated antigen; ratio of output CFU with and without UV crosslinking
Val18pBpa mutant of hC5a = molecular target: T2, Val18pBpa mutant of hC5a; assay: as above

| Binder | UV-treated output CFU/Non-UV-treated output CFU [1] | Non-UV-treated output CFU [2] [CFU] | UV-treated output CFU/Non-UV-treated output CFU (IL1β WT with 6xHis tag) [ratio] | UV-treated output CFU [3] [CFU] | UV-treated output CFU/Non-UV-treated output CFU (hC5a with 6xHis tag) [ratio] | UV-treated output CFU/Non-UV-treated output CFU (Val18pBpa mutant of hC5a) [ratio] |
| --- | --- | --- | --- | --- | --- | --- |
| B1 | 6.4 | 22 | 1.1 | 140 |  |  |
| B2 |  |  |  |  | 1.1 | 3.3 |

Source: patent US20230095979A1 (NANTONG YICHEN BIOPHARMA, published 2023)
